Results taken from the supplement of paper PMC12636428.

Test system: Saccharomyces cerevisiae
Experiment: transcriptional activation domain activity (GFP:mCherry ratio, weighted mean of sorted bins, harmonized to initial dataset scale) (arbitrary fluorescence ratio units); higher = stronger transcriptional activation
Conditions: beta-estradiol 1 µM; induction time 4 h
How it was run: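 Activation activity, the read-weighted mean of bin median fluorescence averaged across barcodes, was linearly mapped onto the scale of the initial dataset. It was measured for barcoded protein tiles fused to an estradiol-inducible synthetic transcription factor at URA3 in GFP-reporter yeast diploids. Cultures diluted 1:5 into SC with 1 uM beta-estradiol were held 4 hours at 30 °C, sorted into 8 bins by GFP:mCherry ratio, and barcode-sequenced, and tiles under 50 reads were discarded.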

Sequence	transcriptional activation domain activity
LLYVMALLMWLFAIAILFPPSALTVVRHDFLEQIPQVVPNLDVAYGRNIEGVK	41800
LMDSGGPDVRPPPKRARKAINCEPCRNSKLKCDRNRPCSSCVLRGTTSQCYQG	43700
LMFLVLIVSNLRLMIENFRKYGVLICIRCHDYRRQDVVYGSILYFLVPCHLFV	73100
LMGLDELHLRVLSSSSDDPQERLNADKVLKLLTKRRHWVLVVLLLGNVIVNES	35800
LMILMIINFIILNIPVAVILLIYFVFKIGFYVFIWKRIRFISILLRATVSHLR	62900
LMLCAGHGILIALVEQSGIDIKPILVFCLITYTLCQIGMCYSCYLYDFILLFF	50100
LMLQRLDIIRQILYLYRDPHLQIVLNRYYKSFNRRKIFLMNPVINALSNMPYF	47500
LMVDEPFEHRLFFLLLFQEGNVCQAQSFQLSGFECMCMVSSQFFFLVWVLYFM	45600
LNCLDLSGIDCCLFFMALRLEVLYSWFLFLAWQLLCTHPALLAFAFGFLGFLI	51600
LNDDDIEKILQPNDIFTTDRTDASTTSSTAIEDIINPSLDPQSAASPVPSSSF	81400
LNGRRMMHEPLVYDMYEPQTPLIIIARVGVRLVFIVAKIGELPHCFIDEPPQQ	23200
LNILILGSVLTDFDTLLRPETMQWNPPLGVWLIWWMQWQMFIPLLILQFLNLY	55400
LNILTSVWAVPVVITLIQALLVMRVCMLFCFNLRVTLCLWALLFASATVSVVL	51200
LNKVCCIFCFLFSFYLLSFYSPFYFCFAFILLLSFFFFFFFFLLLLYFLLLSI	48600
LNLGWRLMHFKVHFARIGVIVHGPQYGELTDWDCSSAHRGDILGFPKAQLLFE	25100
LNLRRPLAFGGMATLLTYLIVPIYFSGVCYRLRLTLPPFLFLILRVSFELFVL	67800
LNMLGLALAASGHFPYAVKYDGAIVVANFNMAILMRNEVFGRLLYLLVNTLFA	71600

Sequence	transcriptional activation domain activity
LNPDYIVGLSSLILVMCYIYKACYVSLLLSMHPLILLCMLCSSFTFIAIIVMI	47700
LNRAARRSTPASRTRREGAIGARVRRRERESERARARTKMGRRSCLRVSAAAT	61600
LNRWQKLLSWDVAYQIEGMLRRLLVDVKEMLSLMARIRAMILRYDSHYTAAFL	71500
LNTFLDSFIFQLFPMVADLWIAAAYFFLYFDAFYSLIIIATTWLYIYITIYMA	58800
LNVLLGFLLLCFPNLERMVLNFGTVIAGPNHPGTLRKGYCEHCKLGVNVLEFD	62000
LNVQLVYLIHSVLSIVIDFTFKRVEGDMDEWVVSGFSDRFERRITFARLYCNK	49000
LNWYFLGTFMYFLYGESIIYYFKHVLLVDRILLPLATHHRFISFMLYIIGFVF	74300
LNWYWLASTMYFLYGESVIYYFKHIVLVDKVLLPLATHHRFISFLLYLMGFVF	93000
LNWYWLATTMYFLYGESVIYYFKHIVLVDKVLLPLATHHRFISFILYVFGFVF	71900
LNWYWLTTTMYFLYGESMLFYFKHIVLVGSVLTPLATHHRFISFTLYIFGFIF	42000
LNYRKDIDAWHKSLMGTLARGPTLWTFWILSCLDKECFWNWQCYLGYMWPGLF	72100
LPDKGKSTEIMTSKLVGRHEFLPVPDFEDQIRRLYENLLISLLSDTQLLIVAW	55800
LPDLQWLVKFLVVAAHETGKNIVCRRAPGNLLSGNLVTLVSNVVLQRSPKRSY	47900
LPFYFFLHCTLSMIPSIHSPSFLQSYICFMLIPPLPLMFIVVFHPLYFFWLFL	15000
LPGGKYLFMVMKNNGGGSEKFALVLFDVEAQMTLLKASRILLLRARYITPKTT	51400
LPHFPIIHPSLLDLDLDSLQRYTNEDGYDDAENAQLFDRLSQGTDKEYDYEHY	71500
LPKDANLCFGKDFLAMYFYCTAVPTLFMFMVSERLYNALMQLAVFLLLCILHL	65000
